Measurements: paper PMC4213023, “Structural Basis of Substrate Selectivity of E. coli Prolidase” (PLoS ONE, 2014)

Experiments:
[1] = biological target: Escherichia coli prolidase PepQ, wild type (Escherichia coli) (UniProt P21165)
[2] = biological target: Escherichia coli prolidase PepQ R370E (Escherichia coli) (UniProt P21165)
[3] = system: C[C@H](N)C(=O)N1CCC[C@H]1C(=O)O; assay: purified protein; assay type: biochemical, Escherichia coli; conditions: 50 mM Tris pH 8, 20 mM Mg(OAc)2, 25°C, 1 µM AlaDH and 2 mM NAD+ (coupling)
[4] = system: C[C@H](N)C(=O)N1CCC[C@H]1C(N)=O; assay: purified protein; assay type: biochemical, Escherichia coli; conditions: 50 mM Tris pH 8, 20 mM Mg(OAc)2, 25°C, 1 µM AlaDH and 2 mM NAD+ (coupling)
[5] = biological target: the molecule itself; assay: crystal structure; PepQ 12 mg/ml in 50 mM Tris pH 7.4, 5 mM MgCl2, 5 mM DTT; hanging drop at 4°C, 20% PEG MME 5000, 0.1 M Bis-Tris pH 6.5; one dimer in the asymmetric unit
[6] = biological target: the molecule itself; assay: SEC; analytical gel filtration, Superose 6, PepQ 10 nM in 50 mM Tris pH 7.4, 50 mM KOAc, 10 mM Mg(OAc)2, 2 mM DTT, 0.4 mL/min, tryptophan fluorescence detection

Row | Molecule | Km (mM) of hydrolysis of the dipeptide, coupled to AlaDH/NAD+ oxidation of alanine, 25°C [1] [mM] | Km (mM) of hydrolysis of the dipeptide, coupled to AlaDH/NAD+ oxidation of alanine, 25°C [2] [mM] | Km [4] [mM] | kcat [4] [s⁻¹] | kcat/Km [4] [M⁻¹ s⁻¹] | further results
1 | AlaPro-CONH2 substrate dipeptide | 6.6 | 4.7 |  |  |  | 
2 | AlaPro-COOH substrate dipeptide | 1.2 | 127 |  |  |  | 
3 | E. coli PepQ (Escherichia coli K-12) |  |  | 6.6 ± 0.5 | 80.7 ± 19.7 | 12000 | Km [3]: 1.2 ± 0.1 mM; kcat [3]: 139 ± 2.5 s⁻¹; kcat/Km [3]: 120000 M⁻¹ s⁻¹
4 | E. coli PepQ (Escherichia coli K-12; R370E) |  |  | 4.7 ± 0.2 | 1.1 ± 0.4 | 230 | 
5 | Escherichia coli prolidase PepQ, wild type (enzyme, UniProt P21165 1-443, looked up, E. coli PepQ (prolidase), gene PCR amplified from chromosomal E. coli DNA; Cloned NdeI/XhoI into pET21a; Two Mg(II) ions per active site in the crystal; also called E. coli PepQ; WT; source: E. coli BL21[DE3], pET21a, purified (fast-flow Q anion exchange, phenyl-sepharose, ammonium sulfate precipitation)) MESLASLYKNHIATLQERTRDALARFKLDALLIHSGELFNVFLDDHPYPFKVNPQFKAWVPVTQVPNCWLLVDGVNKPKLWFYLPVDYWHNVEPLPTSFWTEDVEVIALPKADGIGSLLPAARGNIGYIGPVPERALQLGIEASNINPKGVIDYLHYYRSFKTEYELACMREAQKMAVNGHRAAEEAFRSGMSEFDINIAYLTATGHRDTDVPYSNIVALNEHAAVLHYTKLDHQAPEEMRSFLLDAGAEYNGYAADLTRTWSAKSDNDYAQLVKDVNDEQLALIATMKAGVSYVDYHIQFHQRIAKLLRKHQIITDMSEEAMVENDLTGPFMPHGIGHPLGLQVHDVAGFMQDDSGTHLAAPAKYPYLRCTRILQPGMVLTIEPGIYFIESLLAPWREGQFSKHFNWQKIEALKPFGGIRIEDNVVIHENNVENMTRDLKLA |  |  |  |  |  | stoichiometry N [5]: 2
6 | Escherichia coli prolidase PepQ R370E (enzyme, UniProt P21165 1-443, looked up, E. coli PepQ (prolidase) with R370E, made by site-directed mutagenesis of the wild-type construct (domains of the parent printed as 1-159 and 160-443); Same construct as m1 apart from R370E; PDB 4QR8 is the wild-type parent; also called R370E PepQ; charge-reversed mutant of PepQ; source: E. coli BL21[DE3], pET21a, purified following the protocols used for the wild-type enzyme) MESLASLYKNHIATLQERTRDALARFKLDALLIHSGELFNVFLDDHPYPFKVNPQFKAWVPVTQVPNCWLLVDGVNKPKLWFYLPVDYWHNVEPLPTSFWTEDVEVIALPKADGIGSLLPAARGNIGYIGPVPERALQLGIEASNINPKGVIDYLHYYRSFKTEYELACMREAQKMAVNGHRAAEEAFRSGMSEFDINIAYLTATGHRDTDVPYSNIVALNEHAAVLHYTKLDHQAPEEMRSFLLDAGAEYNGYAADLTRTWSAKSDNDYAQLVKDVNDEQLALIATMKAGVSYVDYHIQFHQRIAKLLRKHQIITDMSEEAMVENDLTGPFMPHGIGHPLGLQVHDVAGFMQDDSGTHLAAPAKYPYLECTRILQPGMVLTIEPGIYFIESLLAPWREGQFSKHFNWQKIEALKPFGGIRIEDNVVIHENNVENMTRDLKLA |  |  |  |  |  | binding result [6]: binds
